Experimental findings from US20250376519A1 (JIANGSU HENGRUI PHARMACEUTICALS, published 2025) are described below.

The target in assay [1] is T1, human DLL3 on cells (human, UniProt Q9NYJ7 27-618).
T1 construct: Endogenous on H1184 and SHP77; Cell line is named under assay; also called H1184; DLL3/H82
T1 sequence: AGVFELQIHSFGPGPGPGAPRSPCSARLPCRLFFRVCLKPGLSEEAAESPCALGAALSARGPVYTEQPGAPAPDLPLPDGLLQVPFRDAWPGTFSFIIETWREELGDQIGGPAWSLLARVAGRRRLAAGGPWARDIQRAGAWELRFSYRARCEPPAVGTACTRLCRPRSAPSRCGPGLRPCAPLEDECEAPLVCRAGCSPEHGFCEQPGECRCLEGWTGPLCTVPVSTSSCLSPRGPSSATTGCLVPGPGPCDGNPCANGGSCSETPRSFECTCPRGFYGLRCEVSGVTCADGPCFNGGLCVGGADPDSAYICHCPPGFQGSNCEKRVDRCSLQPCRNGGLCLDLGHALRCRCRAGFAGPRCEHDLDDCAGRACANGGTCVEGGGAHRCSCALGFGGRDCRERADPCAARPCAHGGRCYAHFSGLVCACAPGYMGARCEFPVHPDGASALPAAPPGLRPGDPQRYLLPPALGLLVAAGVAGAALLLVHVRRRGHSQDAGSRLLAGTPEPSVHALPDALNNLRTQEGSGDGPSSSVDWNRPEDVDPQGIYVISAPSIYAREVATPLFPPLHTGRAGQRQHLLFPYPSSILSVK
The assay is described as follows: flow cytometry, DLL3/H82 cells. Also noted: key to Emax: geometric mean fluorescence intensity (flow cytometry). Here is the method: The plates were centrifuged at 300 g for 5 min, and the supernatant was removed. Different concentrations of test antibodies were added at 100 μL/well. The plates were incubated in the dark in a refrigerator at 4° C. for 1 h. After 3 centrifugal washes at 300 g, working concentrations of APC anti-human IgG Fc (BioLegend, 410712) or PE F(ab′)2-goat anti-human IgG (invitrogen, H10104) were added. The plates were incubated in the dark in a refrigerator at 4° C. for 40 min. After 3 centrifugal washes at 300 g, the geometric mean fluorescence intensity was measured on an Invitrogen flow cytometer, and the EC50 values for the binding of the antibodies to DLL3-expressing cells were calculated.

The target in assay [2] is T2, human DLL3 (ACRO, DLL3-H52H4) (human, UniProt Q9NYJ7 27-492).
T2 construct: Bought
T2 sequence: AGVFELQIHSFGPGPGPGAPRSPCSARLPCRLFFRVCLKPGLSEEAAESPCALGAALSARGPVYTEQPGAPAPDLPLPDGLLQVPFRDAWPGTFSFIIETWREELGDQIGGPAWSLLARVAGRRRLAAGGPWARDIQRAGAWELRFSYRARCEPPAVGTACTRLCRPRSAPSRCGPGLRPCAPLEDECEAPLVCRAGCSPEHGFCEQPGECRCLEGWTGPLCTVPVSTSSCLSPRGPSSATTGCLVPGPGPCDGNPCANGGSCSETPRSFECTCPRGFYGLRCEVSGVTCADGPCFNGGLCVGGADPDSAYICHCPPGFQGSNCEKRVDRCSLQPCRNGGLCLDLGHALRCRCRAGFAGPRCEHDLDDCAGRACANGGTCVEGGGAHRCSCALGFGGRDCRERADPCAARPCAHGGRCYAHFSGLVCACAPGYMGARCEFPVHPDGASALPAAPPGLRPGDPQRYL
Briefly: SPR Biacore 8K, Ab captured on Protein A. An excerpt:
Test antibodies were affinity-captured with a Protein A biosensor chip (Cat. #29127556, Cytiva) for 18 seconds, and then the antigens human DLL3 (ACRO, DLL3-H52H4), cynomolgus monkey DLL3 (KACTUS, DLL-RM103), mouse DLL3 (KACTUS, DLL-MM103), human CD3D&3E (ACRO, CDD-H52W1), and monkey CD3D&3E (ACRO, CDD-C52W4) were allowed to flow through the surface of the chip for 180 seconds, followed by 600 seconds of dissociation. Reaction signals were detected in real time using a Biacore 8K (Cytiva) instrument to obtain association and dissociation curves. After the dissociation in each experimental cycle, the chip was washed and regenerated with a 10 mM glycine-hydrochloric acid solution (pH 1.5, Cat. #BR-1003-54, Cytiva). Data fitting was performed using a 1:1 Model.

B1: hu30L2H2 (antibody, human IgG1, kappa)
heavy: not shown
light: DIVMTQSPDSLAVSLGERATINCKASENVGYVSWYQQKPGQPPKLLIYGASNRYTGVPDRFSGSGSATDFTLTISSLQAEDVAVYHCGQSYSYPLTFGQGTKLEIKRTVAAPSVFIFPPSDEQLKSGTASVVCLLNNFYPREAKVQWKVDNALQSGNSQESVTEQDSKDSTYSLSSTLTLSKADYEKHKVYACEVTHQGLSSPVTKSFNRGEC
In assay [1], B1 gave an EC50 of 0.61 nM and an Emax of 4910. In assay [2], this molecule had a Kd of 1.01 nM, a dissociation rate constant (koff) of 0.000921 s⁻¹ and a kon of 914000 M⁻¹ s⁻¹.

B2: hu30L1H6 (antibody, human IgG1, kappa, V domains shown)
VH: EVRLVQSGAEVKKPGASVKVSCKASGYTFTDYYMNWVRQAPGQSLEWMGIINPYNVDTSYNQKFRGRVTLTVDKSASTAYMELSSLRSEDTAVYYCARYHYGPHLEGYFDVWGQGTTVTVSS
VL: DIVMTQSPDSLAVSLGERATINCKASENVGYVSWYQQKPGQPPKLLIYGASNRYTGVPDRFSGSGSGTDFTLTISSLQAEDVAVYYCGQSYSYPLTFGQGTKLEIKR
Take B2: in assay [1], the EC50 turned out to be 0.56 nM and the Emax is 5750. In assay [2], this molecule registered a Kd of 1.38 nM, a koff of 0.00143 s⁻¹ and a kon of 1.04e+06 M⁻¹ s⁻¹.

B3: hu30L2H7 (antibody, human IgG1, kappa)
heavy: not shown
light: DIVMTQSPDSLAVSLGERATINCKASENVGYVSWYQQKPGQPPKLLIYGASNRYTGVPDRFSGSGSATDFTLTISSLQAEDVAVYHCGQSYSYPLTFGQGTKLEIKRTVAAPSVFIFPPSDEQLKSGTASVVCLLNNFYPREAKVQWKVDNALQSGNSQESVTEQDSKDSTYSLSSTLTLSKADYEKHKVYACEVTHQGLSSPVTKSFNRGEC
For the molecule B3, in assay [1], the EC50 turned out to be 0.83 nM and the Emax came to 5580. For the same molecule, in assay [2], the Kd came out at 1.09 nM, the koff stood at 0.000983 s⁻¹ and the kon was determined as 900000 M⁻¹ s⁻¹.

B4: hu30L1H2 (antibody, human IgG1, kappa)
heavy: not shown
light: DIVMTQSPDSLAVSLGERATINCKASENVGYVSWYQQKPGQPPKLLIYGASNRYTGVPDRFSGSGSGTDFTLTISSLQAEDVAVYYCGQSYSYPLTFGQGTKLEIKRTVAAPSVFIFPPSDEQLKSGTASVVCLLNNFYPREAKVQWKVDNALQSGNSQESVTEQDSKDSTYSLSSTLTLSKADYEKHKVYACEVTHQGLSSPVTKSFNRGEC
For the molecule B4, in assay [1], the EC50 is 0.86 nM and the Emax stood at 6050. In assay [2], this molecule yielded a Kd of 1.32 nM, a koff of 0.00131 s⁻¹ and an on-rate (kon) of 989000 M⁻¹ s⁻¹.

B5: hu30L1H3 (antibody, human IgG1, kappa, V domains shown)
VH: EVRLVQSGAEVKKPGASVKVSCKASGYTFTDYYMNWVRQAPGQSLEWMGIINPYQGDTSYNQKFRGRVTLTVDKSASTAYMELSSLRSEDTAVYYCARYHYGPHLEGYFDVWGQGTTVTVSS
VL: DIVMTQSPDSLAVSLGERATINCKASENVGYVSWYQQKPGQPPKLLIYGASNRYTGVPDRFSGSGSGTDFTLTISSLQAEDVAVYYCGQSYSYPLTFGQGTKLEIKR
As to B5, in assay [1], the EC50 was 0.75 nM and the Emax turned out to be 5560. In assay [2], this molecule returned an equilibrium dissociation constant (Kd) of 1.99 nM, a koff of 0.00185 s⁻¹ and a kon of 929000 M⁻¹ s⁻¹.

B6: hu30L2H4 (antibody, human IgG1, kappa, V domains shown)
VH: EVRLVQSGAEVKKPGASVKVSCKASGYTFTDYYMNWVRQAPGQSLEWMGIINPYSGDTSYNQKFRGRVTLTVDKSASTAYMELSSLRSEDTAVYYCARYHYGPHLEGYFDVWGQGTTVTVSS
VL: DIVMTQSPDSLAVSLGERATINCKASENVGYVSWYQQKPGQPPKLLIYGASNRYTGVPDRFSGSGSATDFTLTISSLQAEDVAVYHCGQSYSYPLTFGQGTKLEIKR
As to B6, in assay [1], the EC50 turned out to be 0.54 nM and the Emax was 5440. In assay [2], this molecule came in with a Kd of 1.07 nM, a koff of 0.00104 s⁻¹ and a kon of 966000 M⁻¹ s⁻¹.

B7: hu30L2H1 (antibody, human IgG1, kappa, V domains shown)
VH: EVQLVQSGAEVKKPGASVKVSCKASGYTFTDYYMNWVRQAPGQSLEWMGIINPYNGDTSYNQKFRGRVTITVDKSASTAYMELSSLRSEDTAVYYCARYHYGPHLEGYFDVWGQGTTVTVSS
VL: DIVMTQSPDSLAVSLGERATINCKASENVGYVSWYQQKPGQPPKLLIYGASNRYTGVPDRFSGSGSATDFTLTISSLQAEDVAVYHCGQSYSYPLTFGQGTKLEIKR
In assay [1], B7 registered a half-maximal effective concentration (EC50) of 0.89 nM and an Emax of 5740. Also, in assay [2], the Kd amounted to 0.658 nM, the koff worked out at 0.000571 s⁻¹ and the on-rate (kon) is 867000 M⁻¹ s⁻¹.

B8: hu30L1H1 (antibody, human IgG1, kappa, V domains shown)
VH: EVQLVQSGAEVKKPGASVKVSCKASGYTFTDYYMNWVRQAPGQSLEWMGIINPYNGDTSYNQKFRGRVTITVDKSASTAYMELSSLRSEDTAVYYCARYHYGPHLEGYFDVWGQGTTVTVSS
VL: DIVMTQSPDSLAVSLGERATINCKASENVGYVSWYQQKPGQPPKLLIYGASNRYTGVPDRFSGSGSGTDFTLTISSLQAEDVAVYYCGQSYSYPLTFGQGTKLEIKR
In the case of B8, in assay [1], the response was half-maximal at 0.74 nM (EC50) and the Emax amounted to 5870. Besides, in assay [2], the Kd was determined as 0.919 nM, the koff stood at 0.000787 s⁻¹ and the on-rate constant (kon) was determined as 857000 M⁻¹ s⁻¹.

B9: hu30L1H4 (antibody, human IgG1, kappa, V domains shown)
VH: EVRLVQSGAEVKKPGASVKVSCKASGYTFTDYYMNWVRQAPGQSLEWMGIINPYSGDTSYNQKFRGRVTLTVDKSASTAYMELSSLRSEDTAVYYCARYHYGPHLEGYFDVWGQGTTVTVSS
VL: DIVMTQSPDSLAVSLGERATINCKASENVGYVSWYQQKPGQPPKLLIYGASNRYTGVPDRFSGSGSGTDFTLTISSLQAEDVAVYYCGQSYSYPLTFGQGTKLEIKR
In assay [1], B9 showed an EC50 of 0.57 nM and an Emax of 5360. In assay [2], binding was characterised by a dissociation constant (Kd) of 1.28 nM, the koff turned out to be 0.00116 s⁻¹ and the kon turned out to be 905000 M⁻¹ s⁻¹.

B10: hu30L2H5 (antibody, human IgG1, kappa, V domains shown)
VH: EVRLVQSGAEVKKPGASVKVSCKASGYTFTDYYMNWVRQAPGQSLEWMGIINPYTGDTSYNQKFRGRVTLTVDKSASTAYMELSSLRSEDTAVYYCARYHYGPHLEGYFDVWGQGTTVTVSS
VL: DIVMTQSPDSLAVSLGERATINCKASENVGYVSWYQQKPGQPPKLLIYGASNRYTGVPDRFSGSGSATDFTLTISSLQAEDVAVYHCGQSYSYPLTFGQGTKLEIKR
In assay [1], B10 displayed an EC50 of 0.65 nM and an Emax of 5570. In assay [2], this molecule gave a Kd of 0.969 nM, a koff of 0.000907 s⁻¹ and a kon of 935000 M⁻¹ s⁻¹.

B11: hu30L2H3 (antibody, human IgG1, kappa, V domains shown)
VH: EVRLVQSGAEVKKPGASVKVSCKASGYTFTDYYMNWVRQAPGQSLEWMGIINPYQGDTSYNQKFRGRVTLTVDKSASTAYMELSSLRSEDTAVYYCARYHYGPHLEGYFDVWGQGTTVTVSS
VL: DIVMTQSPDSLAVSLGERATINCKASENVGYVSWYQQKPGQPPKLLIYGASNRYTGVPDRFSGSGSATDFTLTISSLQAEDVAVYHCGQSYSYPLTFGQGTKLEIKR
In assay [1], B11 displayed a half-maximal effective concentration (EC50) of 0.59 nM and an Emax of 4720. In addition, in assay [2], the Kd was found to be 1.41 nM, the koff amounted to 0.00138 s⁻¹ and the association rate constant (kon) was found to be 981000 M⁻¹ s⁻¹.

B12: hu30L2H6 (antibody, human IgG1, kappa, V domains shown)
VH: EVRLVQSGAEVKKPGASVKVSCKASGYTFTDYYMNWVRQAPGQSLEWMGIINPYNVDTSYNQKFRGRVTLTVDKSASTAYMELSSLRSEDTAVYYCARYHYGPHLEGYFDVWGQGTTVTVSS
VL: DIVMTQSPDSLAVSLGERATINCKASENVGYVSWYQQKPGQPPKLLIYGASNRYTGVPDRFSGSGSATDFTLTISSLQAEDVAVYHCGQSYSYPLTFGQGTKLEIKR
With B12, in assay [1], the EC50 was 0.69 nM and the Emax turned out to be 5420. In assay [2], this molecule gave a Kd of 1.08 nM, a koff of 0.000988 s⁻¹ and a kon of 915000 M⁻¹ s⁻¹.
